Experimental data from patent publication US20100260765A1 (AstraZeneca / MedImmune, published 2010).

B1: 32G7 (antibody, V domains shown)
VH: EVQLVESGGGLVKPGGSLRLSCAASGFTISSYSMNWVRQAPGKGLEWVSFISSRSNYIYYADSVKGRFTISRDNAKNSLYLQMNSLRAEDTAVYYCSKDDWFEELWGQGTLVTVSS
VL: DIQMTQSPSSLSASVGDRVTITCRASQDIRNDLGWYQQKPGKAPKRLIYAASSLQSGVPSRFSGSGSGTEFTLTISSLQPEDFATYYCLQHNSFPWTFGQGTKVEIK
notes: Fully human monoclonal antibody from a XenoMouse hybridoma (IgG2 or IgG4 strain), purified
B2: 27A3 (antibody, V domains shown)
VH: QLQLQESGPGLVKPSETLSLTCTVSGGSISSRSDYWGWIRQPPGKGLEWIGTIYYSGDTYYNPSLKSRVTISVDTSKNQFSLKLSSVTAADTAVYYCARQQLVLYYFDYWGQGTLVTVSS
VL: EIVLTQSPGTLSLSPGERATLSCRASQSVSSSYLAWYQQKPGQAPRLLIYATSNRATGIPDRFSGSGSGTDFTLTISRLEPEDFAVYYCQQHGSSPPLTFGGGTKVEIK
notes: as for B1
B3: 30H10 (antibody, V domains shown)
VH: EVQLLESGGGLVQPGGSLRLSCAASGFTFSNYAMSWVRQAPGKGLEWVSAISGSGGITYYADSVKGRFTISRDNSKNTLFLQMNSLRAEDTAVYYCAKASGDNWGQGTLVSVSS
VL: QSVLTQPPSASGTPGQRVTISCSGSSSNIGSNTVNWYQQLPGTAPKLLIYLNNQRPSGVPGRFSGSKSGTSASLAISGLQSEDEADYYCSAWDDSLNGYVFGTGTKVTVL
notes: as for B1
B4: 29H3 (antibody, V domains shown)
VH: QVQLVQSGAEVKKPGASVKVSCKASGYTFTSYDINWVRQATGQGLEWMGWMNPNSGKTGYAQKFQGRVTMTRNTSINTAYMELSSLRSEDTAVYYCARGGYSNLGWFDPWGQGTLVTVSS
VL: DIQMTQSPSSVSASVGDRVTITCRASQGISSWLVWYHQKPGKAPKLLIYGASSLQSGVPSRFSGSGSGTDFTLTISSLQPEDFATYYCQQANNFPFTFGPGTKVDIK
notes: as for B1

biological target: T1, human KDR (human, UniProt P35968 20-1356); assay: cell-based or functional assay
T1 sequence (P35968 20-1356): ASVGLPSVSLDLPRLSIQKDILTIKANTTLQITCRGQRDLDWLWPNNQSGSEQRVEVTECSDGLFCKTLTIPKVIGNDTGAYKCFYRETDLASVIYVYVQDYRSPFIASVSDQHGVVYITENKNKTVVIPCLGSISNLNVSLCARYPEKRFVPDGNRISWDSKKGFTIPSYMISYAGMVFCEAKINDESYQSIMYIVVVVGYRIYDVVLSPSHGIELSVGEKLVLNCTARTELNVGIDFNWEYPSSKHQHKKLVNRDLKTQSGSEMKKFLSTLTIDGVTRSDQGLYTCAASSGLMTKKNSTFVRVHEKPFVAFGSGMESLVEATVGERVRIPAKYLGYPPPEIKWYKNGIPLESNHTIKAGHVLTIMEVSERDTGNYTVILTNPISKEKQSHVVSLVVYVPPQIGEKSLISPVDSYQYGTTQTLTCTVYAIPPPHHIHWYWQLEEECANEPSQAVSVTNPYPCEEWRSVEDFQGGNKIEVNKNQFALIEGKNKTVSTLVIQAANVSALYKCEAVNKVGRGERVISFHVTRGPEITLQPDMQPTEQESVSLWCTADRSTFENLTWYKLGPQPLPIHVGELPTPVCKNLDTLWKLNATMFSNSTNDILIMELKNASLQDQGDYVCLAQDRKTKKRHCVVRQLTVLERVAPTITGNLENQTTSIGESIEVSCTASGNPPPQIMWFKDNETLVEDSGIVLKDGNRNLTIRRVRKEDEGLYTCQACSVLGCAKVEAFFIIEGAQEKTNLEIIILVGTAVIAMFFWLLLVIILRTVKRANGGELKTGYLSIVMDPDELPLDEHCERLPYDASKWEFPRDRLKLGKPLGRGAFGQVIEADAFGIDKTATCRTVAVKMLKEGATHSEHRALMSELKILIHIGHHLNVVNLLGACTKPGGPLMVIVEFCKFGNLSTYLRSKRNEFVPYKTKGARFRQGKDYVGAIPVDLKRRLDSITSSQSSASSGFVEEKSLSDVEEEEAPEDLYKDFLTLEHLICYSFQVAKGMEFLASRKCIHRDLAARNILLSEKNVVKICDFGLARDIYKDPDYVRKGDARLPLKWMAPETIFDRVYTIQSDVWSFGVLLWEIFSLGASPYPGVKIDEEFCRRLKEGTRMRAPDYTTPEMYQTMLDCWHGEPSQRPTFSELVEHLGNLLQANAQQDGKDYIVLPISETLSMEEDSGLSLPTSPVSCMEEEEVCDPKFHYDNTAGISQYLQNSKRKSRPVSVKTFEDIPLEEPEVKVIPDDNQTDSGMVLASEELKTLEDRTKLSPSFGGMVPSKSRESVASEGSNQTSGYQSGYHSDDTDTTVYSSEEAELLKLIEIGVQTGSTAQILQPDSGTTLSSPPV

Row | Binder | KDR tyrosine phosphorylation in HUVEC, EC50 (nM), Average [nM] | KDR tyrosine phosphorylation in HUVEC, EC50 (nM), N = 1 [nM] | KDR tyrosine phosphorylation in HUVEC, EC50 (nM), N = 2 [nM] | KDR tyrosine phosphorylation in HUVEC, Maximum Inhibition at 100 nM (% Inhibition), Average [%] | KDR tyrosine phosphorylation in HUVEC, Maximum Inhibition at 100 nM (% Inhibition), N = 1 [%] | KDR tyrosine phosphorylation in HUVEC, Maximum Inhibition at 100 nM (% Inhibition), N = 2 [%]
1 | B1 | 0.6 | 0.6 | 0.6 | 73 | 69 | 77
2 | B2 | 3.1 | 3.4 | 2.9 | 78 | 77 | 79
3 | B3 | 0.4 | 0.6 | 0.2 | 29 | 36 | 22
4 | B4 | 0.4 | 0.5 | 0.4 | 32 | 33 | 30

biological target: T2, whole KDR-ECD (Cat. # 676490, Calbiochem) (human, UniProt P35968 20-764); assay: ELISA, KDR-ECD coat 5 ug/mL, antibody 1 ug/mL
T2 construct: extracellular domain; Bought soluble protein; also called soluble KDR; VEGF Receptor 2 D1-7
Description: (§1) The cross-reactivity of purified antibodies was tested against KDR mouse ortholog KDR mouse ortholog (mouse VEGFR2, or Flk-1) and human VEGFR1 (Flt-1). The ability of the antibodies to bind soluble KDR Ig4-7 domain and to the entire KDR extracellular domain (ECD) was also measured.
(§2) Cross-reactivity experiments were carried out and measured using an ELISA based assay as described in Example 6. […] Antibody controls included IgG1 and IgG4 (Sigma-Aldrich, Cat. #15154 and #14639, respectively).

T2 sequence (P35968 20-764): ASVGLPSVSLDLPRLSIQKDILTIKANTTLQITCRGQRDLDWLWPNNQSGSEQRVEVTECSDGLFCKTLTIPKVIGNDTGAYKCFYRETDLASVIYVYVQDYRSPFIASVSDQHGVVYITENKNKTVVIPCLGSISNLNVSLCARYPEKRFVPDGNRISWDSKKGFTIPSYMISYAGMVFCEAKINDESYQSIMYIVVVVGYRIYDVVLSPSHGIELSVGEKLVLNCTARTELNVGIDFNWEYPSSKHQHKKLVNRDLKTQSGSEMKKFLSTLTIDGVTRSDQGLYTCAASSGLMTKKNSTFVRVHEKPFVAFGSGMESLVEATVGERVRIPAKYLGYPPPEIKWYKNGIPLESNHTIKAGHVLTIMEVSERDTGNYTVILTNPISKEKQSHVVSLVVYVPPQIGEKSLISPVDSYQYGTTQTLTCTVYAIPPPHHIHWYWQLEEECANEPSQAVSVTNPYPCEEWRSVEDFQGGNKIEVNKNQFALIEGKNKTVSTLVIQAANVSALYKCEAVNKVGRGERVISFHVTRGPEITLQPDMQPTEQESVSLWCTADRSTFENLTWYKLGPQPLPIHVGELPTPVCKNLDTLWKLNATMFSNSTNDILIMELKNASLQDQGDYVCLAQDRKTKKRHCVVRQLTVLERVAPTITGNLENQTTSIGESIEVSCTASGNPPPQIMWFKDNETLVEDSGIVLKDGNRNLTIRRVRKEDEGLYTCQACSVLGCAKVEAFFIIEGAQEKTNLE

Row | Binder | ELISA reading
5 | B1 | 2.36
6 | B2 | 1.97
7 | B3 | 2.47
8 | B4 | 2.62

biological target: T1, human KDR; assay: FACS titration of purified antibody on HUVEC cells (FACS Kd)
Description: The binding affinities of the purified antibodies for endogenously-expressed KDR in HUVEC cells was measured. HUVEC cells were seeded at 150,000 cells/well and incubated with titrations of purified antibody for 4 hours at 4° C. The cells were then washed and incubated with goat anti-human IgG-Fc-Cy5+5 μg/mL 7-Amino-Actinomycin (7AAD) for 30 minutes at 4° C. Bound KDR was detected using FACS analysis.

Row | Binder | Kd [nM]
9 | B1 | 0.2
10 | B2 | 5.4
11 | B3 | 0.9
12 | B4 | 0.5

biological target: T1, human KDR; assay: FACS competition on 293T/human KDR transfectants; antibody 5 ug/mL first, then competitor VEGF165 50 ng/mL; bound VEGF165 detected
Description: (§3) Transfected cells were then seeded at 50,000 cells/well and incubated with 5 μg/mL of candidate antibody for one hour at 4° C. […] After washing, the cells were incubated with Cy5-conjugated rabbit anti-goat antibody plus 7AAD for 15 minutes at 4° C.

Row | Binder | FACS Geometric Mean Fluorescence (bound VEGF165)
13 | B2 | 118

biological target: T2, whole KDR-ECD (Cat. # 676490, …); assay: ELISA, KDR-ECD coat 5 ug/mL, antibody 0.1 ug/mL
Description: as §1, §2

Row | Binder | ELISA reading
14 | B1 | 0.307
15 | B2 | 0.111
16 | B3 | 0.31
17 | B4 | 0.306

biological target: T3, soluble KDR Ig4-7 domain (human, UniProt P35968 328-764); assay: ELISA, KDR Ig4-7 coat (1:1 diln.), antibody 0.01 ug/mL
T3 construct: domain: Ig4-7 domain; also called b-KDRIg4-7-myc-his; Ig4-7 domain of KDR; not shown: myc-his tag of the pSecTag construct
Description: as §1, §2

T3 sequence (P35968 328-764): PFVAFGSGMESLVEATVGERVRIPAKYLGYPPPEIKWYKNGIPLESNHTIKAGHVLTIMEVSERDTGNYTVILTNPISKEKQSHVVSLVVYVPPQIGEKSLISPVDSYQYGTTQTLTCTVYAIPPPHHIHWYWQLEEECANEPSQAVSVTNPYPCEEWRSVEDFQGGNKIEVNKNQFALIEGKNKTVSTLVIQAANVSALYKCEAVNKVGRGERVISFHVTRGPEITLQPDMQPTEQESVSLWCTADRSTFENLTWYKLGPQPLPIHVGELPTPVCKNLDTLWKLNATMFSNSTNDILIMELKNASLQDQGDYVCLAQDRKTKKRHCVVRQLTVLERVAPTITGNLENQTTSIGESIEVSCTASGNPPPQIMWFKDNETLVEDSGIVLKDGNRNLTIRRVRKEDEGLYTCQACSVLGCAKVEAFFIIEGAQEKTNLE

Row | Binder | ELISA reading
18 | B1 | 0.933
19 | B2 | 0.08
20 | B3 | 1.36
21 | B4 | 1.14

biological target: T2, whole KDR-ECD (Cat. # 676490, …); assay: ELISA, KDR-ECD coat 5 ug/mL, antibody 0.01 ug/mL
Description: as §1, §2

Row | Binder | ELISA reading
22 | B1 | 0.103
23 | B2 | 0.093
24 | B3 | 0.117
25 | B4 | 0.099

biological target: T4, cynomolgus KDR (cynomolgus monkey, UniProt A0A2K5VE63 20-1356); assay: FACS on Cyno KDR/293T transfectants, antibody 5 ug/mL
T4 construct: whole, on cells; also called Cyno KDR
Description: The binding of purified antibodies to cell-bound cynomolgus KDR (with parental cells as negative control) was tested by FACS analysis in this assay.
Cynomolgus KDR was cloned in 3 pieces. One piece was PCR amplified from cynomolgus lung cDNA, and the remaining two pieces were PCR amplified from cynomolgus kidney cDNA. The three PCR products were inserted into pCR3.1 Bid vector. […] Transfected cells were seeded at 50,000 cells/well and incubated with 5 μg/mL of candidate antibody for one hour at 4° C. The cells were then washed and incubated with secondary antibody (Cy5-conjugated goat anti-human antibody, or Cy5-conjugated rabbit anti-goat antibody, plus 7-Amino-Actinomycin (7AAD)) for 15 minutes at 4° C. Binding between cynomolgus KDR and purified antibody was detected by FACS analysis.

T4 sequence (A0A2K5VE63 entry or part of it): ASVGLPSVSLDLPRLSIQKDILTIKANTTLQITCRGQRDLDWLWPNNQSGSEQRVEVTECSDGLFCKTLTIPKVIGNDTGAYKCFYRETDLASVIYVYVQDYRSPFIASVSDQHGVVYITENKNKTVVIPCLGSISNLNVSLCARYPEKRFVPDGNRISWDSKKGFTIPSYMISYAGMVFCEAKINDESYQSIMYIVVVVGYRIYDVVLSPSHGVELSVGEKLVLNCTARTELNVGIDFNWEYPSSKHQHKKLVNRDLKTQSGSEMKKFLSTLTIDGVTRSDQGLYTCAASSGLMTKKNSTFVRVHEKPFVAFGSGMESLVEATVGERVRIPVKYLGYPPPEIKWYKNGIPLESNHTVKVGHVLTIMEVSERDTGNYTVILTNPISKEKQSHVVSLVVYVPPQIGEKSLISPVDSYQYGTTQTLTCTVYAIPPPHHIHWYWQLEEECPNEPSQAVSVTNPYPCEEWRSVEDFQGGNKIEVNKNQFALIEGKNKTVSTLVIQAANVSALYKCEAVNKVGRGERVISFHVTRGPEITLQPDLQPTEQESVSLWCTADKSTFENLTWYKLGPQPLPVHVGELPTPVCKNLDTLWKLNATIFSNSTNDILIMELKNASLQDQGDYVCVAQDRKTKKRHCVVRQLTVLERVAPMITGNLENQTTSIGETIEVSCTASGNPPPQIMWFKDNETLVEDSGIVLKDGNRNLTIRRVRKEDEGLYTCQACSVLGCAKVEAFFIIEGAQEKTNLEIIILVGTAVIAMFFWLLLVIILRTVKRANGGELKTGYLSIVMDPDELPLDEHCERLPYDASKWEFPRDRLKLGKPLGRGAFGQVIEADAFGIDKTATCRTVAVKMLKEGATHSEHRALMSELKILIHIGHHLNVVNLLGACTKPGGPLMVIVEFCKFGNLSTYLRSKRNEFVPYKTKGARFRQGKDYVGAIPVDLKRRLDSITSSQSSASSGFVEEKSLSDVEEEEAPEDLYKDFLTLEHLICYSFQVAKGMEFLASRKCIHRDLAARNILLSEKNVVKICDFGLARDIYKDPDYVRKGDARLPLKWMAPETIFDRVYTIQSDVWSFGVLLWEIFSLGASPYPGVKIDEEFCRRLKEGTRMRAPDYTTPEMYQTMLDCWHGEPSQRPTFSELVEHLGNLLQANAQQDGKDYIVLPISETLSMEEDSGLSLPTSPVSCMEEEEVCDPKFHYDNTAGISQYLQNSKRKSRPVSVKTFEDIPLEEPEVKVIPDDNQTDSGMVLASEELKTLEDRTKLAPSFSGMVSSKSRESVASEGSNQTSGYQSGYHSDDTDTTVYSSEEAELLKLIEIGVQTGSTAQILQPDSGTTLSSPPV

Row | Binder | FACS Geometric Mean Fluorescence
26 | B2 | 89.7

biological target: T1, human KDR; assay: cell-based or functional assay; remark: another data set of the same source

Row | Binder | HUVEC survival, Maximum Inhibition at 50 nM (% Inhibition), Average [%] | HUVEC survival, Maximum Inhibition at 50 nM (% Inhibition), N = 1 [%] | HUVEC survival, Maximum Inhibition at 50 nM (% Inhibition), N = 2 [%]
27 | B1 | 72 | 73 | 72
28 | B2 | 95 | 95 | 94
29 | B3 | -5 | -9 | -1
30 | B4 | 11 | 4 | 18

biological target: T1, human KDR; assay: cell-based or functional assay; remark: another data set of the same source

Row | Binder | 6-keto Prostaglandin F1α release, EC50 (nM), Average [nM] | 6-keto Prostaglandin F1α release, EC50 (nM), N = 1 [nM] | 6-keto Prostaglandin F1α release, EC50 (nM), N = 2 [nM] | 6-keto Prostaglandin F1α release, Maximum Inhibition (% Inhibition), Average [%] | 6-keto Prostaglandin F1α release, Maximum Inhibition (% Inhibition), N = 1 (200 nM) [%] | 6-keto Prostaglandin F1α release, Maximum Inhibition (% Inhibition), N = 2 (333 nM) [%]
31 | B1 | 23.1 | 11.2 | 35.1 | 42 | 28 | 55
32 | B2 | 5.6 | 5.5 | 5.7 | 49 | 49 | 49
33 | B3 |  |  |  | 3 | 0 | 6
34 | B4 |  |  |  | 5 | 2 | 8

biological target: T3, soluble KDR Ig4-7 domain; assay: ELISA, KDR Ig4-7 coat (1:1 diln.), antibody 1 ug/mL
Description: as §1, §2

Row | Binder | ELISA reading
35 | B1 | 2.65
36 | B2 | 0.078
37 | B3 | 3.04
38 | B4 | 3.02

biological target: T5, mouse KDR (Flk-1)/Fc (Cat. #443-KD/CF, R&D Systems, Inc.) (mouse, UniProt P35918 20-762); assay: ELISA, Flk-1 coat 5 ug/mL, antibody 0.1 ug/mL
T5 construct: Bought reagent; also called mouse VEGFR2; KDR mouse ortholog; not shown: Fc of the bought fusion protein
Description: as §1, §2

T5 sequence (P35918 20-762 limits assumed): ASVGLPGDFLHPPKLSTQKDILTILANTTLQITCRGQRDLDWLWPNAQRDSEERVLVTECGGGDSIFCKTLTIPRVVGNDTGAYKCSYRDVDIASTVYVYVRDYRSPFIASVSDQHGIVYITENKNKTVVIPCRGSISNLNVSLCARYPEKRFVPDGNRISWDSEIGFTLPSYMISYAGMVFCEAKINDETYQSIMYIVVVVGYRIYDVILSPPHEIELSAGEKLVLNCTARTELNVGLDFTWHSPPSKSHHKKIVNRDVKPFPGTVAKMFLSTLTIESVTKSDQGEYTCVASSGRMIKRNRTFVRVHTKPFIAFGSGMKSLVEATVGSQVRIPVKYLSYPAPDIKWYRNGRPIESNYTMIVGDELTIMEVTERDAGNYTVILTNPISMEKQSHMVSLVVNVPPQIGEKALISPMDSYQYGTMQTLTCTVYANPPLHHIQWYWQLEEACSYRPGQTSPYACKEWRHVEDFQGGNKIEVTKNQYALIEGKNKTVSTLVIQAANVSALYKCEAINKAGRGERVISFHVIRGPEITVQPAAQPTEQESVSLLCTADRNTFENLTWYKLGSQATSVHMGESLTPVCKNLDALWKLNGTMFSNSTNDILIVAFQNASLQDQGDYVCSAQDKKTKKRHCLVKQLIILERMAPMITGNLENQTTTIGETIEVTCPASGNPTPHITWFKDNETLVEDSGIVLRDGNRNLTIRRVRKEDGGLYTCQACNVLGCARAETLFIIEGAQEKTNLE

Row | Binder | ELISA reading
39 | B1 | 2.14
40 | B4 | 2.35

biological target: T1, human KDR; assay: FACS competition on 293T/human KDR transfectants; antibody 5 ug/mL first, then competitor VEGF165 50 ng/mL; inhibition of VEGF binding
Description: as §3

Row | Binder | % Inhibition [%]
41 | B2 | 9

biological target: T5, mouse KDR (Flk-1)/Fc (Cat. #443-KD/CF, …); assay: ELISA, Flk-1 coat 5 ug/mL, antibody 0.01 ug/mL
Description: as §1, §2

Row | Binder | ELISA reading
42 | B1 | 0.988
43 | B4 | 1.14

biological target: T5, mouse KDR (Flk-1)/Fc (Cat. #443-KD/CF, …); assay: ELISA, Flk-1 coat 5 ug/mL, antibody 1 ug/mL
Description: as §1, §2

Row | Binder | ELISA reading
44 | B1 | 2.67
45 | B4 | 3.04

biological target: T3, soluble KDR Ig4-7 domain; assay: ELISA, KDR Ig4-7 coat (1:1 diln.), antibody 0.1 ug/mL
Description: as §1, §2

Row | Binder | ELISA reading
46 | B1 | 2.31
47 | B2 | 0.075
48 | B3 | 2.77
49 | B4 | 2.36
